Data on 1 substance can be found in article PMC12433258, “Binding Differences of the Peptide‐Substrate–Binding Domain of Collagen Prolyl 4‐Hydroxylases I and II for Proline‐ and Hydroxyproline‐Rich Peptides” (Proteins, 2025).

For assay [1], the target named is PSB‐I^143–238 construct (peptide‐substrate–binding domain of the α‐I subunit of human collagen prolyl 4‐hydroxylase I) (human) (UniProt P13674). In words: ITC; 3 mM peptide titrated into 50 μM PSB‐I^143–238 in the cell; 20 mM Bis‐Tris, 100 mM glycine, pH 6.8; 25°C; one‐set‐of‐sites model with fixed stoichiometry (n = 1); three measurements. For orientation: Isothermal titration calorimetry measures the heat released or taken up as one component is titrated into another.
Chain of PSB‐I^143–238 construct (peptide‐substrate–binding domain of the α‐I subunit of human collagen prolyl 4‐hydroxylase I) (human) (P13674 160-255): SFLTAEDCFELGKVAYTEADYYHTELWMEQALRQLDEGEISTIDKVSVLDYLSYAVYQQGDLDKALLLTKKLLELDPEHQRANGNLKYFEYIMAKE

Assay [2] deals with PSB‐II^142–236 construct (peptide‐substrate–binding domain of the α‐II subunit of human collagen prolyl 4‐hydroxylase II) (human) (UniProt O15460). In words: ITC; 3 mM peptide titrated into 50 μM PSB‐II in the cell; 20 mM Tris, 50 mM NaCl, 50 mM glycine, pH 8.0; 25°C; one‐set‐of‐sites model with fixed stoichiometry (n = 1); three measurements.
Chain of PSB‐II^142–236 construct (peptide‐substrate–binding domain of the α‐II subunit of human collagen prolyl 4‐hydroxylase II) (human) (O15460 163-257): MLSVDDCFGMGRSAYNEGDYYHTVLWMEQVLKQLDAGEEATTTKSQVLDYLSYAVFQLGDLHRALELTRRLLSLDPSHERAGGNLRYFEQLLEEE

By Kd is commonly meant the constant that tells how readily two partners part at equilibrium. Low values mean a tighter complex, high ones a looser complex. Regarding POG‐PAG‐POG peptide, the Kd in assay [1] amounted to 79.6 µM; in assay [2], 26.2 µM. The dH in assay [1] is -12.7 kcal/mol.
